Assay results as given in US20230068663A1 (University of Texas, published 2023).

Experiments:
LILRB2-His antigen [1] = target: T1, LILRB2-His antigen (UniProt Q8N423 22-460, limits assumed); experiment: ELISA titration on LILRB2 and LILRA1 antigens
T1 construct: Coated on ELISA plates; also used for phage panning; also called LILRB2 antigen; not shown: His tag

LILRB2-His antigen [2] = target: T1, LILRB2-His antigen; experiment: indirect ELISA, coated LILRB2-His
Description: ELISA binding EC of LILRB2 antibodies. The ELISA binding EC₅₀ of these 24 antibodies were measured by indirect ELISA. […] After incubation, HRP-conjugated goat anti-human Fc secondary antibody was incubated with the plates. The TMB substrate was added for color development and measurement of absorbance at 450 nm.

[3] = target: T2, LILRB2 chimeric receptor on LILRB2 reporter cells (extracellular domain of LILRB2 fused with … (UniProt Q8N423 22-460)); experiment: flow cytometry, LILRB2 reporter cells
T2 construct: extracellular domain;domain: transmembrane/intracellular domains; associates with DAP12; also called LILRB2-expressing reporter cells
Description: (§1) FIGS. 1A-C. Screening specific monoclonal antibodies for LILRB2. […] Binding of monoclonal antibodies was screened using flow cytometer on LILRB2 reporter cells. Bound antibodies were detected with Allophycocyanin (APC)-labeled goat anti-human IgG secondary antibody. (FIG. 1B) Quantification of binding ability of monoclonal antibodies to LILRB2 reporter cells.
(§2) Screening specific monoclonal antibodies for LILRB2. The inventors employed a stable reporter cell system to detect the binding ability of selected monoclonal antibodies to LILRB2. In this chimeric receptor reporter system, the extracellular domain (ECD) of LILRB2 is fused with transmembrane/intracellular domains of PILRb that associates with the adaptor protein DAP12 containing an immunoreceptor tyrosine-based activation motif. 27 monoclonal antibodies were screened. The LILRB2 reporter cells were incubated with selected monoclonal antibody, then labeled with (APC) goat anti-human IgG secondary antibody. […] The inventors generated LILRBAs and LILRBs reporters stably transduced with each receptor's extracellular domain (ECD).

LILRA5 = target: T3, LILRA5; experiment: flow cytometry, reporter cells [cont'd]
T3 construct: also called LILRA5 reporter cells

LILRA6 = target: T4, LILRA6; experiment: flow cytometry, reporter cells [cont'd]
T4 construct: also called LILRA6 reporter cells

LAIR1 on reporter cells [4] = target: T5, LAIR1 on reporter cells (UniProt Q6GTX8 22-165, limits assumed); experiment: flow cytometry, reporter cells [cont'd]
T5 sequence (looked up): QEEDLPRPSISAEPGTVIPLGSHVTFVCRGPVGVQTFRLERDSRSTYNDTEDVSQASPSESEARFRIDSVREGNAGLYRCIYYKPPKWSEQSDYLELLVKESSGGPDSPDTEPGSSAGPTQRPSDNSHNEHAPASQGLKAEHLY

[5] = target: T6, full extracellular domain (ECD) of LILRB2 fused to Fc fragment of mouse IgG2a (human; mouse, UniProt Q8N423 22-460); experiment: ELISA, coated human LILRB2 ECD-mIgG2a Fc [panel A]
T6 construct: extracellular domain; also called B2-ECD; wildtype B2-ECD; not shown: Fc fragment of mouse IgG2a
Description: FIGS. 19A-B. ELISA binding measurement of antibodies to human and non-human primate (cynomolgus monkey, cyno) LILRB2 recombinantly produced in HEK293 cells. (FIG. 19A) ELISA binding to human LILRB2. (FIG. 19B) ELISA binding to cyno-LILRB2. The fusion proteins of the extracellular domain (ECD) of human LILRB2 or NHP-LILRB2 with Fe of mouse IgG2a were used to coat ELISA plates and antibodies were titrated in different concentrations as indicated in the graph.

[6] = target: T2, LILRB2 chimeric receptor on LILRB2 …; experiment: flow cytometry on LILRB2 reporter cells, APC anti-human IgG
Description: as §1, §2

LAIR1 on reporter cells [7] = target: T5, LAIR1 on reporter cells; experiment: flow cytometry, reporter cells
LAIR1 on reporter cells [8] = target: T5, LAIR1 on reporter cells; experiment: flow cytometry, reporter cells; remark: listed apart in the source
Description: Binding of LILRB2 monoclonal antibodies was detected using flow cytometry on LILRAs, LILRBs or LAIR1-expressing reporter cells using a Allophycocyanin (APC)-labeled goat anti-human IgG Fc specific secondary antibody. Non: non-stained reporter cells. NEG: cells incubated only with secondary Ab. POS: cells incubated with commercial antibody conjugated with APC or AF647 for the respective LIL or LAIR-1 receptors. The number indicates mean fluorescence intensity (MFI) of APC or AF647.

[9] = target: T7, LILRB2 (antigen in solution, Octet RED 96) (UniProt Q8N423 22-460, limits assumed); experiment: BLI (Octet RED 96), antibody on protein A biosensor, LILRB2 in solution
T7 construct: also called LILRB2 solution
Description: Affinity measurement of blocking antibodies. Affinities of the 5 blocking antibodies were measured on Octet RED 96 system.

T4 sequence (chain, as listed by the source limits assumed): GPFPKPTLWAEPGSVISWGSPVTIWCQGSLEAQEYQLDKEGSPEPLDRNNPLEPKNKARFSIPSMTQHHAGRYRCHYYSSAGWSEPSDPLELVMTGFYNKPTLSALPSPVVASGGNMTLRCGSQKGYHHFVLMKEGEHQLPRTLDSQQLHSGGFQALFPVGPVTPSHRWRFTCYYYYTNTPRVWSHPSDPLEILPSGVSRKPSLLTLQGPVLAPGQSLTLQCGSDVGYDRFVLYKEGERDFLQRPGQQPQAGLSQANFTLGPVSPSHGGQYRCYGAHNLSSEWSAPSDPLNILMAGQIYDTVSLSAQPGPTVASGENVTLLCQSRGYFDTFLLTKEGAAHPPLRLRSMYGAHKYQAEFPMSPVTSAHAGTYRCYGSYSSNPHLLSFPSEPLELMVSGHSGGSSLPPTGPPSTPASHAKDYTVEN
T3 sequence (chain, as listed by the source limits assumed): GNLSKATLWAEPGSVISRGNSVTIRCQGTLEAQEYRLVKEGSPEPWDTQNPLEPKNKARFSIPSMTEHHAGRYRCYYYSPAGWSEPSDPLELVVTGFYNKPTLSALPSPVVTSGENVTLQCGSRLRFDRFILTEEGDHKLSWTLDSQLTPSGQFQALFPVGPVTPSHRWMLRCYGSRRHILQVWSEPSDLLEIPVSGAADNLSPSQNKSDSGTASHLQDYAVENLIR

B1: B2-10 (antibody, V domains shown)
VH: QVQLVQSGGGLVQPGGSLRLSCAASGFTFSSYAMSWVRQAPGKGLEWVSTINDSGGSTYYADSVKGRFTISRDNSKNTLYLQMNSLRAEDTAVYYCAKDHITIFGVAPFDYWGLGTLVTVSS
VL: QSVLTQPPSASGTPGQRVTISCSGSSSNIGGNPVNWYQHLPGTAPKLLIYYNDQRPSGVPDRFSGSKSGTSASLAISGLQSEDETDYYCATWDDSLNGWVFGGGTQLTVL
notes: also called B2-10_HC; B2-10_LC
**Q.** With B1 as the binder, how does the “fold potency of binding to LILRB2 against binding to LILRA1” value (“fold potency of binding to LILRB2” for short) (LILRB2-His antigen [1]) read?
**A.** > 100 fold

**Q.** What about the EC50 (LILRB2-His antigen [2]) of the same binder?
**A.** 0.575 nM

**Q.** What about the “% of cells anti-hIgG APC+” value [3] of the same binder?
**A.** 35.1%

B2: B2-12 (antibody, V domains shown)
VH: QVQLVQSGDEVKKAGASVRVSCKASGYTFPDNGISWVRQAPGHGLEWMGWINVDTGYTHYAQRVQDRVVMTTDTSTNTLHMTLRSLTTDDTAVYYCAREIEGVWTAWGQGTLVIVSS
VL: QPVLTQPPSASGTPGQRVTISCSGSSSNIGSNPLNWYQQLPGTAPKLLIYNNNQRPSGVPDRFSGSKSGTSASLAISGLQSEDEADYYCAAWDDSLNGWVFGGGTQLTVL
notes: also called B2-12_HC; B2-12_LC
**Q.** Which “fold potency of binding to LILRB2” value (LILRB2-His antigen [1]) does the source give for B2 here?
**A.** > 100 fold

**Q.** What about the EC50 (LILRB2-His antigen [2]) of the same binder?
**A.** 0.444 nM

**Q.** Does B2 bind (LILRA5)?
**A.** no binding

**Q.** Does B2 bind (LILRA6)?
**A.** no binding

**Q.** Does B2 bind (LAIR1 on reporter cells [4])?
**A.** no binding

**Q.** And the “% of cells anti-hIgG APC+” value [3]?
**A.** 25.5%

B3: HCB2-15 (antibody, V domains shown)
VH: QVQMVESGGDLVQPGQSLRLSCVTSGFPFADYAMSWFRQAPGQRPEWIGYIKSKTRDGTTKYAESLRGRFTISRDDSKSIAYLQMNNLKREDTAVYYCALGGAAALWGPGTLVSVSS
VL: QPPSVSGAPGQRVTISCAGSSSNIGAGYGVHWYQHLPGTAPKLLIYGDNNRPSGVPYRFSGSKSGTSASLAITGLQAEDEADYFCQSYDSSLGVGVFGGGTKVTVL
notes: also called HCB2-15_HC; HCB2-15_LC
**Q.** Does B3 bind [5]?
**A.** binds

B4: B2-18 (antibody, V domains shown)
VH: QVQLVQSGAEVKKPGASVKVSCKASGYTFTRYGFSWVRQAPGQGLEWMGWISGYNGNTKYAQKFQGRVTMTTDTSTSTAYMELRSLTSNDTAVYYCARDRGSGYLEYWGPGTLVTVSS
VL: DVQMTQSPSSLSASVGERVTLTCRASQGIYSSLAWYQQKPGKAPKLLLYGTSQLERGVPSRFSGSGSGTDYTLTISSLQPEDSATYYCQQHYNLPITFGQGTRLEIK
notes: also called B2-18_HC; B2-18_LC
**Q.** Which “fold potency of binding to LILRB2” value (LILRB2-His antigen [1]) does the source give for B4 here?
**A.** > 100 fold

**Q.** And the EC50 (LILRB2-His antigen [2])?
**A.** 0.355 nM

**Q.** Does B4 bind (LILRA5)?
**A.** no binding

**Q.** Does B4 bind (LILRA6)?
**A.** no binding

**Q.** Does B4 bind (LAIR1 on reporter cells [4])?
**A.** no binding

**Q.** What about the “% of cells anti-hIgG APC+” value [3] of the same binder?
**A.** 75.6%

**Q.** And the “percent of LILRB2 reporter cells labeled” value [6]?
**A.** > 95%

B5: HCB2-17 (antibody, V domains shown)
VH: QVQLVQSGAEVKKPGSSVKVSCKASGGTFSSYAISWVRQAPGQGLEWMGGIIPIFGTANYAQKFQGRVTITADESTSTAYMELSSLRSEDTAVYYCAISSGYYYNPFDYWGQGTLVTVSS
VL: not shown
notes: also called HCB2-17_HC; HCB2-17_LC
**Q.** Does B5 bind [5]?
**A.** binds

B6: HCB2-18 (antibody, V domains shown)
VH: QVQLVQSGAEVKKPGSSVKVSCKASGGTFSSYAISWVRQAPGQGLEWMGGIIPIFGTANYAQKFQGRVTITADESTSTAYMELSSLRSEDTAVYYCARGGYQPLDYWGQGTLVIVSS
VL: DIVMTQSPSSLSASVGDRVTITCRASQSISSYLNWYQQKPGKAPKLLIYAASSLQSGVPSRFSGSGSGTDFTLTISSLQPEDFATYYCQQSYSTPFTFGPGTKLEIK
notes: also called HCB2-18_HC; HCB2-18_LC
**Q.** Does B6 bind [5]?
**A.** binds

B7: HCB2-24 (antibody, V domains shown)
VH: QMQLEQSGAEVKKPGSSVKVSCKASGGTFSSYAISWVRQAPGQGLEWMGGIIPIFGTANYAQKFQGRVTITADKSTSTAYMELSSLRSEDTAVYYCARAGGIHYYDSLDYWGQGTLVTVSS
VL: not shown
notes: also called HCB2-24_HC; HCB2-24_LC
**Q.** Does B7 bind [5]?
**A.** binds

B8: HCB2-27 (antibody, V domains shown)
VH: QVQLVESGGGLVKPGGSLRLSCAASGFTFANAWMGWVRQAPGKGLQWVSHIKPSSSGGRTTDYDAPVKGRFTISRDDSNDTVYLQMNSLKTEDTGVYYCVTGRRVAKTFDFWGQGTTVSVSS
VL: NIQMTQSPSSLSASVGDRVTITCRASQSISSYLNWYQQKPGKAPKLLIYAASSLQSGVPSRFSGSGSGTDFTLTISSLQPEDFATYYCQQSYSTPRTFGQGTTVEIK
notes: also called HCB2-27_HC; HCB2-27_LC
**Q.** Does B8 bind [5]?
**A.** binds

B9: B2-8 (antibody, V domains shown)
VH: QVQLVQSGAEVKKPGSSVKVSCKASGGTFSSYAISWVRQAPGQGLEWMGGIIPIFGTANYAQKFQGRVTITADESTSTAYMELSSLRSEDTAVYYCARVAVADTFFDYWGQGTLVTVSS
VL: QPVLTQPASVSGSPGQSITISCTGTSSDVGGYNYVSWYQQHPGKAPKLMIYDVSNRPSGVSNRFSGSKSGNTASLTISGLQAEDEADYYCSSYTSSSTPYVFGTGTKVTVL
notes: also called B2-8_HC; B2-8_LC
**Q.** Does B9 bind (LAIR1 on reporter cells [7])?
**A.** no binding

**Q.** What about the EC50 (LILRB2-His antigen [2]) of the same binder?
**A.** 0.557 nM

**Q.** And the “% of cells anti-hIgG APC+” value [3]?
**A.** 24.8%

B10: B2-24 (antibody, V domains shown)
VH: QVQLVESGGGLVKPGGSLRLSCAASGFTFSDYYMSWIRQAPGKGLEWVSYISSSSSYTNYADSVKGRFTISRDNAKNSLYLQMNSLRAEDTAVYYCARVGDLDAFDIWGQGTMVTVSS
VL: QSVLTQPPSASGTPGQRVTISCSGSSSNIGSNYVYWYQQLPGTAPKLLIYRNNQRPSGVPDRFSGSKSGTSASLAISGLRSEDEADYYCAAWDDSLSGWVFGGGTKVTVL
notes: also called B2-24_HC; B2-24_LC
**Q.** Does B10 bind (LAIR1 on reporter cells [7])?
**A.** no binding

**Q.** And the EC50 (LILRB2-His antigen [2])?
**A.** 5.06 nM

**Q.** And the “% of cells anti-hIgG APC+” value [3]?
**A.** 13%

B11: B2-25 (antibody, V domains shown)
VH: QVQLVESGGGLVKPGGSLRLSCAASGFTFSDHYMSWIRQAPGKGLEWVSYITTTGSTMSYADSVKGRFTISRDNSKNSLHLQLSSLRAEDTAVYYCARDSIHVDGAFDIWGQGTMVTVSS
VL: SYELTQPPSVSVAPGQTARITCGGNNIGSKSVHWYQQKPGQAPVLVVYDDSDRPSGIPERFSGSNSGNTATLTISRVEAGDEADYYCQVWDSSSDHWVFGGGTKLTVL
notes: also called B2-25_HC; B2-25_LC
**Q.** B11 was tested. Which EC50 (LILRB2-His antigen [2]) did it give?
**A.** 1.73 nM

**Q.** Does B11 bind (LAIR1 on reporter cells [4])?
**A.** no binding

**Q.** What about the “% of cells anti-hIgG APC+” value [3] of the same binder?
**A.** 39.2%

B12: HCB2-10 (antibody, V domains shown)
VH: QVQLVESGGGLVQPGGSLRLSCAASGFTFSNYAMSWVRQAPGKGLEWVSAISGSSISTYYADSVKGRFTISRDNSKNTLYLQMNSLRAEDTAVYYCASSGFGSFDYWGQGTLVTVSS
VL: QPPSVSAAPRQRVTISCSGSSSNIGDNSVNWYQQLPGKAPKLLIYLDDLLPSGVSGRFSGSKSGTSASLVISGLQSEDEADYYCATWDDSLNGVVFGGGTKVTVL
notes: also called HCB2-10_HC; HCB2-10_LC
**Q.** Does B12 bind (LAIR1 on reporter cells [8])?
**A.** no binding

**Q.** What about the Kd [9] of the same binder?
**A.** 8.67 nM

**Q.** What about the koff [9] of the same binder?
**A.** 0.0061 s⁻¹

**Q.** What about the kon [9] of the same binder?
**A.** 703000 M⁻¹ s⁻¹

B13: HCB2-5 (antibody, V domains shown)
VH: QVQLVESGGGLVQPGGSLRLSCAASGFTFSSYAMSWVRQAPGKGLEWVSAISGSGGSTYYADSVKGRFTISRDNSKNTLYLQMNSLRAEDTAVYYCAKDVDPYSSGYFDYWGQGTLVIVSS
VL: AIQMTQSPSSVSASVGDRVTITCRASQGIGSWLAWYQQKPGKAPKLLISVASSLQSGVPSRFSGSGSGTDFTLTISSLQPEDFATYYCQQANSFPLTFGGGTTVEIK
notes: also called FCB2-5; HCB2-5_HC
**Q.** Does B13 bind (LAIR1 on reporter cells [8])?
**A.** no binding

**Q.** And the Kd [9]?
**A.** 10.2 nM

**Q.** What about the koff [9] of the same binder?
**A.** 0.00324 s⁻¹

**Q.** What about the kon [9] of the same binder?
**A.** 317000 M⁻¹ s⁻¹
